From article PMC4729829, “BAP1/ASXL1 recruitment and activation for H2A deubiquitination” (Nature Communications, 2016)
Numbering of substitutions follows the chain as printed. Numbers in names are those of the source.

How the values were obtained:
[1] = target: BAP1/ASXL1^DEU complex (wild type) (human) (UniProt Q92560)
[2] = target: BRCA-1-associated protein 1 (BAP1), full length, wild type (human) (UniProt Q92560)
[3] = target: Nucleosome core particle mono-ubiquitinated at H2A K119 with N-terminally TAMRA-labeled ubiquitin (Xenopus | not stated) (UniProt P06897); experiment: fluorescence polarisation; stopped-flow; 20 nM ^TAMRAUb-NCP mixed with various concentrations of inactive (C91A) BAP1 or BAP1/ASXL1^DEU; 25 mM HEPES pH 7.5, 150 mM NaCl, 0.05% Tween-20, 0.5 mM TCEP; 20 °C; kobs against concentration by linear regression
[4] = tested on: BAP1 C91A;ASXL1 DEUBAD (ASXL1DEU); experiment: stopped-flow fluorescence polarization; conditions: 20 C, 20 nM NCP, histone H2A K119 mono-ubiquitinated by RING1B/BMI1, EMSA: 100 nM NCP, 4-12% Tris-glycine native gel, 4 C, FP: 25 mM HEPES pH 7.5, 150 mM NaCl, 0.05% Tween-20, 0.5 mM TCEP
[5] = target: BAP1/ASXL1DEU complex (human) (UniProt Q92560)
[6] = target: T1, full-length BAP1 (BRCA-1-associated protein 1) (human), Q92560; experiment: SEC-MALS; miniDawn detector in line with Superdex S75 10/30 (ASXL1DEU), Superose 6 10/30 (BAP1) or Superdex S200 10/30 (BAP1/ASXL1DEU); 10 mM HEPES pH 7.5, 150 mM NaCl, 0.5 mM TCEP, 4 °C; molecular weights from the refractive index signal; conditions: remark: other sources report otherwise
T1 chain: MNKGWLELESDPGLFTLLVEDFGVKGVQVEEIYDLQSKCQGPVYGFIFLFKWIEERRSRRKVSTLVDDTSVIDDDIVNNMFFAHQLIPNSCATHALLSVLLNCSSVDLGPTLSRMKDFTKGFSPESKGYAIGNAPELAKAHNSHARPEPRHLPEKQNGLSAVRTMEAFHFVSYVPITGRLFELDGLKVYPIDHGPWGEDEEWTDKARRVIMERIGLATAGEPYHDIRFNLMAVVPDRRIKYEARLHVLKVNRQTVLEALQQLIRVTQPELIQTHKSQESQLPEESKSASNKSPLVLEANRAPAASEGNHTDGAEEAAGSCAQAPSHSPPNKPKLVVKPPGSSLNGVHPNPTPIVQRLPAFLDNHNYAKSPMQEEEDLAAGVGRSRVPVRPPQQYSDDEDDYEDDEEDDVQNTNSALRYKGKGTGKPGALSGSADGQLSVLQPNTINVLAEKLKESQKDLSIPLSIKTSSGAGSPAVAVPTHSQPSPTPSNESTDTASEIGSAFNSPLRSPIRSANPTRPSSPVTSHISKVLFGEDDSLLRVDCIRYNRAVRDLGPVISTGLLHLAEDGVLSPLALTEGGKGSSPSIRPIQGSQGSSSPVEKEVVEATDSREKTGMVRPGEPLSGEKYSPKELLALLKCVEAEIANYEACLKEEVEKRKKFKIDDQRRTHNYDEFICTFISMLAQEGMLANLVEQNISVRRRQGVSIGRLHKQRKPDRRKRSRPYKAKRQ

[7] = target: T2, full-length BAP1 (BRCA-1-associated protein 1) (human, UniProt Q92560 1-729); experiment: ITC; VP-ITC at 25 °C; 25 mM HEPES pH 7.5, 150 mM NaCl, 10% glycerol, 0.5 mM TCEP; 30 μM ASXL1DEU (syringe) titrated into 13 μM BAP1 variant (cell), 10 or 5 μl injections; one-site binding model; conditions: both partners purified
T2 construct: BAP1, uniprot Q92560, full length; Vector pFastBac-NKI-his-3C-LIC; no removal of the tag is described; also called FL BAP1; WT BAP1; source: Sf9 cells, purified (Ni2+ chelating sepharose, Poros HQ anion exchange, Superose 6 SEC)
T2 sequence (looked up): T1 chain

[8] = target: T3, BAP1 1-710 (lacks the C-terminal extension) (human, UniProt Q92560 1-710); experiment: as above; conditions: both partners purified
T3 construct: BAP1, uniprot Q92560, residues 1-710; Vector pFastBac-NKI-his-3C-LIC; source: Sf9 cells, purified (Ni2+ chelating sepharose, Poros HQ anion exchange, Superose 6 SEC)
T3 sequence (looked up): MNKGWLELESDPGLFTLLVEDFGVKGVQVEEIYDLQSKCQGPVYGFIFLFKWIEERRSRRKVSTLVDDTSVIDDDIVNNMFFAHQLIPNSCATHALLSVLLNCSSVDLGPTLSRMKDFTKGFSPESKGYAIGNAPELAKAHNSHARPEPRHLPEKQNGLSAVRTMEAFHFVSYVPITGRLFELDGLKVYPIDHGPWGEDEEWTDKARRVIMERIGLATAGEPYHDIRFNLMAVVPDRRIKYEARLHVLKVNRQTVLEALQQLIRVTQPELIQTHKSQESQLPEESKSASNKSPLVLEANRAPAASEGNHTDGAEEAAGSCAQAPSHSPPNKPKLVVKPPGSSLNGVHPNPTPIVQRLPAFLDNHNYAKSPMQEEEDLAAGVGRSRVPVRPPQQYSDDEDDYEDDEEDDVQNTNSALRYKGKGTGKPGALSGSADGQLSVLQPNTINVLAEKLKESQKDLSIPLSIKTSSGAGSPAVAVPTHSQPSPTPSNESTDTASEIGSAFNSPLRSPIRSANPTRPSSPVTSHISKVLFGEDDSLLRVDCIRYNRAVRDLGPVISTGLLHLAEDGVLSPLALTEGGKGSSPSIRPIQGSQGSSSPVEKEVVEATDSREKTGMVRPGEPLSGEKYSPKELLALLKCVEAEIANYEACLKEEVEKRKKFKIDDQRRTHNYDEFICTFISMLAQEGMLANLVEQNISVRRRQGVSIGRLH

[9] = target: T4, BRCA-1-associated protein 1 (BAP1), full length, wild type (human, UniProt Q92560 1-729); experiment: SEC-MALS; SEC-MALLS, miniDawn detector; Superdex S75 10/30 (ASXL1^DEU), Superose 6 10/30 (BAP1) or Superdex S200 10/30 (BAP1/ASXL1^DEU); 10 mM HEPES pH 7.5, 150 mM NaCl, 0.5 mM TCEP; 4 °C; conditions: both partners purified
T4 construct: BAP1 (BRCA-1-associated protein 1), human, UniProt Q92560, full length; Cloned into pFastBac-NKI-his-3C-LIC; In isolation it forms dimers and higher order oligomers (SEC-MALLS); also called WT BAP1; full-length BAP1; source: Sf9 cells, purified (Ni2+ chelating sepharose, Poros HQ anion exchange, Superose 6 SEC)
T4 sequence (looked up): T1 chain

[10] = target: T4, BRCA-1-associated protein 1 (BAP1), …; experiment: ITC; 30 μM ASXL1^DEU in the syringe titrated (10 or 5 μl injections) into 13 μM BAP1 variant in the cell; 25 °C; 25 mM HEPES pH 7.5, 150 mM NaCl, 10% glycerol, 0.5 mM TCEP; one-site binding model; conditions: both partners purified

For “Non-hydrolyzable H2A-peptide ubiquitin conjugate (ubiquitin linked at the K119 position) (from UniProt P0CG48 1-75)”, which IC50 of inhibition of Ub-AMC hydrolysis by the BAP1/ASXL1^DEU complex, against BAP1 alone (fold lower than BAP1 alone) [1] is on record?
Its IC50 of inhibition of Ub-AMC hydrolysis by the BAP1/ASXL1^DEU complex, against BAP1 alone (fold lower than BAP1 alone) is over 10.

And the IC50 of inhibition of Ub-AMC hydrolysis by BAP1 (500 pM enzyme, 2 μM Ub-AMC, conjugate up to 200 μM) [2]?
Its IC50 of inhibition of Ub-AMC hydrolysis by BAP1 (500 pM enzyme, 2 μM Ub-AMC, conjugate up to 200 μM) is 45 μM.

For “BAP1 (C91A)/ASXL1^DEU complex (from UniProt Q92560 1-729; Q8IXJ9 238-390)”, which Kd [3] is on record?
Its Kd is 4 µM.

For “TAMRA-Ub-NCP (H2A K119ub, Widom 601 167 bp)”, which Kd [4] is on record?
The Kd was 4 µM.

For “non-hydrolyzable H2A-peptide ubiquitin conjugate (H2A-K119) (from UniProt P0CG47 1-75)”, which Supplementary Table 3: IC50 of the non-hydrolyzable H2A ubiquitin conjugate for inhibition of Ub-AMC hydrolysis by BAP1/ASXL1DEU [5] is on record?
Its Supplementary Table 3: IC50 of the non-hydrolyzable H2A ubiquitin conjugate for inhibition of Ub-AMC hydrolysis by BAP1/ASXL1DEU is 3.3 µM.

B1: full-length BAP1 (BRCA-1-associated protein 1), Q92560 1-729 (enzyme)
chain: T1 chain
Which stoichiometry N [6] does the source give for B1 here?
The stoichiometry N was 2.

B2: ASXL1 DEUBAD domain (aa 238-390) (domain or fragment, human, UniProt Q8IXJ9 238-390, looked up)
chain: ATGQMKRNRGEEIDFETPGSILVNTNLRALINSRTFHALPSHFQQQLLFLLPEVDRQVGTDGLLRLSSSALNNEFFTHAAQSWRERLADGEFTHEMQVRIRQEMEKEKKVEQWKEKFFEDYYGQKLGLTKEESLQQNVGQEEAEIKSGLCVPG
notes: ASXL1, uniprot Q8IXJ9, DEUBAD domain, residues 238-390; Vector pET-NKI-his-3C-LIC; also called His-ASXL1DEU; source: E. coli, purified (Ni2+ chelating sepharose, Poros HQ anion exchange, Superdex 75 SEC)
Which results are given for B2?
stoichiometry N [7]: 0.37 ± 0.002; Kd [8]: 0.005 ± 0.00016 µM; stoichiometry N [8]: 0.27 ± 0.001

B3: ASXL1 DEUBAD domain (aa 238-390) N310A/E311K/F312A (domain or fragment, human, UniProt Q8IXJ9 238-390, looked up)
chain: B2 chain with N73A, E74K, F75A
notes: ASXL1, uniprot Q8IXJ9, DEUBAD domain, residues 238-390, triple mutant of the NEF region; Variant of Dm4; also called ASXL1NEF DEU; NEF; source: E. coli, purified (Ni2+ chelating sepharose, Poros HQ anion exchange, Superdex 75 SEC)
Which results are given for B3?
Kd [7]: 0.046 ± 0.00014 µM; stoichiometry N [7]: 0.32 ± 0.003

B4: ASXL1 DEUBAD domain (aa 238-390) (domain or fragment, human, UniProt Q8IXJ9 238-390, looked up)
chain: B2 chain
notes: ASXL1 (additional sexcombs like 1), human, UniProt Q8IXJ9, DEUBAD domain, aa 238-390; Cloned into pET-NKI-his-3C-LIC; printed as His-ASXL1^DEU; Monomeric in SEC-MALLS; also called His-ASXL1^DEU; WT ASXL1^DEU; source: E. coli, purified (Ni2+ chelating sepharose, Poros HQ anion exchange, Superdex 75 SEC)
For B4, which “stoichiometry N” value [9] is on record?
Its value is 2 BAP1 molecules per ASXL1^DEU molecule.

And the Kd [10]?
Its Kd is 0.018 µM.

And the “stoichiometry N” value [10]?
Its value is 0.25 to 0.5.

B5: ASXL1 DEUBAD domain triple mutant N310A/E311K/F312A (domain or fragment, human, UniProt Q8IXJ9 238-390, looked up)
chain: B2 chain with N73A, E74K, F75A
notes: ASXL1, human, UniProt Q8IXJ9, DEUBAD domain, aa 238-390, with N310A, E311K and F312A; Variant of m2; also called ASXL1NEF^DEU; NEF; source: E. coli, purified (Ni2+ chelating sepharose, Poros HQ anion exchange, Superdex 75 SEC)
With B5 as the molecule, how does the Kd [10] read?
Its Kd is 0.045 µM.
